Laboratory results reported in patent US20140309177.

Experiments:
Experiment in all cases: cell_activity
Conditions in all cases: HEK293T luciferase reporter, single TALE-TF
[1] = test system: CEACAM5 TALE C TALE-TF (VP64) (synthetic (Xanthomonas TALE)?)
[2] = biological target: CEACAM5 TALE E TALE-TF (VP64) (synthetic (Xanthomonas TALE)?) (UniProt Q56830)
[3] = biological target: CEACAM5 TALE B TALE-TF (VP64) (synthetic (Xanthomonas TALE)?) (UniProt Q56830)
[4] = biological target: CEACAM5 TALE D TALE-TF (VP64) (synthetic (Xanthomonas TALE)?) (UniProt Q56830)
[5] = test system: CEACAM5 TALE F TALE-TF (VP64) (synthetic (Xanthomonas TALE)?)
[6] = test system: IL1RN TALE-C TALE-TF (VP64) (synthetic (Xanthomonas TALE)?)
[7] = biological target: IL1RN TALE-A TALE-TF (VP64) (synthetic (Xanthomonas TALE)?) (UniProt Q56830)
[8] = biological target: IL1RN TALE-D TALE-TF (VP64) (synthetic (Xanthomonas TALE)?) (UniProt P14727)
[9] = test system: IL1RN TALE-B TALE-TF (VP64) (synthetic (Xanthomonas TALE)?)
[10] = test system: KLK3 TALE D TALE-TF (VP64) (synthetic (Xanthomonas TALE)?)
[11] = biological target: KLK3 TALE E TALE-TF (VP64) (synthetic (Xanthomonas TALE)?) (UniProt Q56830)
[12] = biological target: KLK3 TALE-A TALE-TF (VP64) (synthetic (Xanthomonas TALE)?) (UniProt Q56830)
[13] = biological target: KLK3 TALE F TALE-TF (VP64) (synthetic (Xanthomonas TALE)?) (UniProt Q56830)

Substance: CEACAM5 promoter reporter (hg19 chr19:42211804-42212651)
- activity [1]: 3.74 fold RLA
- activity [2]: 2.41 fold RLA
- activity [3]: 11.6 fold RLA
- activity [4]: 4.59 fold RLA
- activity [5]: 4.7 fold RLA

Substance: IL1RN promoter reporter (hg19 chr2:113874366-113875462)
- activity [6]: 6.75 fold RLA
- activity [7]: 14.4 fold RLA
- activity [8]: 5.76 fold RLA
- activity [9]: 12 fold RLA

Substance: KLK3 promoter reporter (hg19 chr19:51357466-51358177)
- activity [10]: 45.8 fold RLA
- activity [11]: 2.17 fold RLA
- activity [12]: 25.1 fold RLA
- activity [13]: 4.57 fold RLA
